Results: US20050112119A1 (Takeda / Millennium, published 2005)
Residue numbers refer to the chain shown, from its start.

Tests used:
[1] = target: T1, human CXCR4 (human, UniProt P61073 1-352); test: flow cytometry, hybridoma supernatant on L1.2 transfectants, PE anti-human IgG
T1 construct: whole, on cells
Method: (§1) Three days after the last immunization, five animals were sacrificed, their spleen cells were isolated, combined and used to produce hybridomas by standard methods. About 3×10⁸ spleen cells were fused with 5- to 10-fold fewer SP2/0-Ag14 fusion partner cells (ATCC, No. CRL-1581, Manassas, Va.) or P3X63Ag8.653 fusion partner cells (ATCC, No. CRL-1580, Manassas, Va.), by brief resuspension in polyethylene glycol 1500 (50% in 75 mM HEPES, Boehringer-Mannheim, now Roche Applied Science, Indianapolis, Ind.), to generate the hybridomas. After fusion, the cells were selected by incubation for two weeks in hypoxanthine, aminopterin, thymidine (HAT) medium specificity was assessed by staining CXCR3 transfectants, control L1.2 cells and L1.2 cells that expressed human CCR1, CCR2, CCR3, CCR4, CCR5, CXCR1, CXCR2, or CXCR4 (Qin et al. (1998) J. Clin. Invest. 101:746-54). The binding of antibody from the hybridoma supernatants to receptor transfectants was detected by phycoerythrin-conjugated anti-human IgG with analysis by flow cytometry. Positive wells were those that contained supernatant which stained the CXCR3 transfectants, but not L1.2 cells which expressed the other chemokine receptors tested. Positive wells were subcloned to yield hybridoma cell lines. Hybridoma cultures were maintained in DMEM with 10% fetal calf serum, 10 units/ml interleukin-6, 0.1% L-glutamine, and 0.1% penicillin/streptomycin.

[2] = target: T2, human CCR2 (human, UniProt P41597 1-374); test: as above
T2 construct: whole, on cells
Method: as §1

[3] = target: T3, human CCR3 (human, UniProt P51677 1-355); test: as above
T3 construct: whole, on cells
T3 sequence (looked up): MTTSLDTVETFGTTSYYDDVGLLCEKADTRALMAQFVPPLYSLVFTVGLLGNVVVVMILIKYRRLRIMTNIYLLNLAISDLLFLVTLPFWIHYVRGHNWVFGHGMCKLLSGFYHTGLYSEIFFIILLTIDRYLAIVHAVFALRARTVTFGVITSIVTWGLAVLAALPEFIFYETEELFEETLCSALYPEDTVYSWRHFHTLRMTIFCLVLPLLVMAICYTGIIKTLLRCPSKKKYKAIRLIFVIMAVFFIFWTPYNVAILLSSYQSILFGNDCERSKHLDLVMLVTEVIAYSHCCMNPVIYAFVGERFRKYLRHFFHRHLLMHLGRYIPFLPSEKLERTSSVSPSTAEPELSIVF
Method: as §1

[4] = target: T4, human CCR4 (human, UniProt P51679 1-360); test: as above
T4 construct: whole, on cells
T4 sequence (looked up): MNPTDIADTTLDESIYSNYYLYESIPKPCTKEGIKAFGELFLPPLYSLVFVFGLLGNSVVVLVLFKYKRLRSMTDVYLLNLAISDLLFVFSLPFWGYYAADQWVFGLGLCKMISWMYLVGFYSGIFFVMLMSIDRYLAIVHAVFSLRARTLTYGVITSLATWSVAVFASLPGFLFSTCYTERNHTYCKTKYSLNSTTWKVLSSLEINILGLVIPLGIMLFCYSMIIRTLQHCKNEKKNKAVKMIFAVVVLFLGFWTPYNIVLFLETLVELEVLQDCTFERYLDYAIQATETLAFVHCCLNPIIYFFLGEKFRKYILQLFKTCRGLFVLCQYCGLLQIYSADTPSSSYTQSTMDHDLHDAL
Method: as §1

[5] = target: T5, human CXCR1 (human, UniProt P25024 1-350); test: as above
T5 construct: whole, on cells
T5 sequence (looked up): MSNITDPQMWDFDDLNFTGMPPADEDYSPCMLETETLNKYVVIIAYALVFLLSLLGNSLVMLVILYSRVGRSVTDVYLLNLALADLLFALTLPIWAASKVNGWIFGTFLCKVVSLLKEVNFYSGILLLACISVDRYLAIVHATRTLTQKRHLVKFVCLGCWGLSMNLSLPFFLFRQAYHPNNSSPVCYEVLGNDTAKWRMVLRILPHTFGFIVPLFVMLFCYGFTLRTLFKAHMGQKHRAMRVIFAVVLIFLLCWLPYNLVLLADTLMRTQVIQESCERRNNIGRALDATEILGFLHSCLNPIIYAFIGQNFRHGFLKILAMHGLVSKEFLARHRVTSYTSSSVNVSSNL
Method: as §1

[6] = target: T6, human CXCR2 (human, UniProt P25025 1-360); test: as above
T6 construct: whole, on cells
T6 sequence (looked up): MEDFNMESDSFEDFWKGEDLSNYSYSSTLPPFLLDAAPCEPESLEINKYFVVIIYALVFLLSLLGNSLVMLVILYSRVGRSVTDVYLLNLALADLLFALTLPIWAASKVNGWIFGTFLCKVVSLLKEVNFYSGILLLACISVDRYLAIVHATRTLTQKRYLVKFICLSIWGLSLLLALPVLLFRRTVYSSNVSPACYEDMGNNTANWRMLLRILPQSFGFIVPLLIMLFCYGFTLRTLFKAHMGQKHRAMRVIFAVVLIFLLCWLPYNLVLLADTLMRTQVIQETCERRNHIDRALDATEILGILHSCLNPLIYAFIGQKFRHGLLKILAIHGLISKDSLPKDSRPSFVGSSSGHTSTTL
Method: as §1

[7] = target: T7, human CCR1 (human, UniProt P32246 1-355); test: as above
T7 construct: whole, on cells
T7 sequence (looked up): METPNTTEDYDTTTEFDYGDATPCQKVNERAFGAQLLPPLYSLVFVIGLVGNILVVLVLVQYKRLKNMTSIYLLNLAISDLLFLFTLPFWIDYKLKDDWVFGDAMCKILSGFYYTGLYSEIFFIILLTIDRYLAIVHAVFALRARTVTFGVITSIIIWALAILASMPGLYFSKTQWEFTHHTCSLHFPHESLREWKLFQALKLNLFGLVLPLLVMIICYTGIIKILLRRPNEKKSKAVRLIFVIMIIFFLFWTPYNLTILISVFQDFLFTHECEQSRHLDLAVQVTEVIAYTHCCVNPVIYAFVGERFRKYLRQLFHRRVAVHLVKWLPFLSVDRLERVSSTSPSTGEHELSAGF
Method: as §1

[8] = target: T8, human CCR5 (human, UniProt P51681 1-352); test: as above
T8 construct: whole, on cells
Method: as §1

[9] = target: T9, human CXCR3 (human, UniProt P49682 1-368); test: flow cytometry on CXCR3 L1.2 transfectants, biotinylated antibody, streptavidin-PE; 100% is the fluorescence at 10 µg/ml
T9 construct: Full-length human CXCR3 expressed on transfected L1.2 murine B lymphoma cells; also called C-X-C chemokine receptor-3; CD183
T9 sequence: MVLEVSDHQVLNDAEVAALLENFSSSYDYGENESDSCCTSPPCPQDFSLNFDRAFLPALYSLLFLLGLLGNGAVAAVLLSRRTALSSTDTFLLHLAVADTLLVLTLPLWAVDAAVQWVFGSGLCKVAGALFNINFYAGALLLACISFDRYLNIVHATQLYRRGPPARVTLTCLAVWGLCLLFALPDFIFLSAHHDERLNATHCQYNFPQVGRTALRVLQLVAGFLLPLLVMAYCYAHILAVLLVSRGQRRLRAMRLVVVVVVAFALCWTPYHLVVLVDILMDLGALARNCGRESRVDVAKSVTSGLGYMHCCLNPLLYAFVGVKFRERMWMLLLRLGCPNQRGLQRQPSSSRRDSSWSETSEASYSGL
Method: The strength of human monoclonal antibody 5H7 and human monoclonal antibody 7H5 binding to CXCR3 was measured using CXCR3 transfectants. The mean streptavidin-PE fluorescence detected when 10 μg/ml of each purified mAb was used to stain CXCR3 transfectants was used as 100% fluorescence.

[10] = target: T9, human CXCR3; test: cell-based or functional assay

T8 sequence (P51681 whole entry): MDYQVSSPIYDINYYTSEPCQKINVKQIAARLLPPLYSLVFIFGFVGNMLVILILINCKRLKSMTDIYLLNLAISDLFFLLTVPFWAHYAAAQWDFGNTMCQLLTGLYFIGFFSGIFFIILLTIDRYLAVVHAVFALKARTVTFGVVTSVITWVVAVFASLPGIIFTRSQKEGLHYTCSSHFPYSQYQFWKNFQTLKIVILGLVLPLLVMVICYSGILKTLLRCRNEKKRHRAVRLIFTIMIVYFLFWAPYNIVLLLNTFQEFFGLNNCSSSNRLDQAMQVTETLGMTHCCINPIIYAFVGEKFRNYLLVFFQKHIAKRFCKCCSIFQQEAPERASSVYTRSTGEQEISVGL
T1 sequence (P61073 whole entry): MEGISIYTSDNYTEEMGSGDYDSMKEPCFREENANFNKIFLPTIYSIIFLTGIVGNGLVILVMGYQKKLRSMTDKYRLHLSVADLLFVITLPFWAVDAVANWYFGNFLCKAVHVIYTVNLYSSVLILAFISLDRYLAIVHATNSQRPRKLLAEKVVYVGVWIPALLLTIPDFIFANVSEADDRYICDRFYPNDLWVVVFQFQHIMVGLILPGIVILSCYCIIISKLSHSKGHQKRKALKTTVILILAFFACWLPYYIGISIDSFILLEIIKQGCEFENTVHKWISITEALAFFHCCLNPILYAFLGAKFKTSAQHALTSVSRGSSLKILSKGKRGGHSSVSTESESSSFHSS
T2 sequence (P41597 whole entry): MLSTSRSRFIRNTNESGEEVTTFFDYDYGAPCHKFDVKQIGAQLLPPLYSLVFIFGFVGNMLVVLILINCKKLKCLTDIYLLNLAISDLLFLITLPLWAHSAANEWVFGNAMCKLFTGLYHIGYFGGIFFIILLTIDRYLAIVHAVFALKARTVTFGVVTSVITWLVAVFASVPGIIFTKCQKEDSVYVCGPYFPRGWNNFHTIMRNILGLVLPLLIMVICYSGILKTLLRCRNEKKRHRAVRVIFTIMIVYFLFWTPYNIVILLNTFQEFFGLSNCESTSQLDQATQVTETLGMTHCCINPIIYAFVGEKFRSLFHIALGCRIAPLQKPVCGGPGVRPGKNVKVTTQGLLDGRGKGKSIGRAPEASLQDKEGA

B1: human monoclonal antibody 5H7 (antibody, human IgG2, V domains shown)
VH: QVQVVQSGAEVKKPGASVKVSCKTSGYTFTGNYIHWVRQAPGQGLEWMGWINPNSGGTNFAQKFQGRVTMTRDTSITTAYMVLSRLRSDDTAVYYCARGGNNMIVVARGYYGMDVWGQGTTVTVSS
VL: DIQMTQSPSSLSASVGDRVTITCRASQSIGRYLNWYQQKPGKAPKLLIYGASSLQSGVPSRFSGSGSGTEFTLTISSLQPEDFATYYCQQSFRVPISFGQGTRLEIK
notes: The hybridoma antibody as tested is human IgG2, kappa; also called human mAb 5H7; antibody of hybridoma LS328-5H7-2-6 (ATCC PTA-5388)
binding result [1]: no binding
binding result [2]: no binding
binding result [3]: no binding
binding result [4]: no binding
binding result [5]: no binding
binding result [6]: no binding
binding result [7]: no binding
binding result [8]: no binding
EC50 [9]: 0.5 nM
IC50 of inhibition of chemotaxis of CXCR3 transfectants toward I-TAC [10]: 1.2 µg/mL
IC50 of inhibition of chemotaxis of CXCR3 transfectants toward IP-10 [10]: 0.7 µg/mL
IC50 of inhibition of chemotaxis of CXCR3 transfectants toward MIG [10]: 2.9 µg/mL

B2: human monoclonal antibody 7H5 (antibody, human IgG2, V domains shown)
VH: B1 VH with T24A, N32Y, N54D, F60Y, T77S, S84N, R98K, N101I
VL: B1 VL with A25T, L73F, T74I, S97T
notes: The hybridoma antibody as tested is human IgG2, kappa; also called human mAb 7H5; antibody of hybridoma LS329-7H5-2-19-7 (ATCC PTA-5389)
binding result [1]: no binding
binding result [2]: no binding
binding result [3]: no binding
binding result [4]: no binding
binding result [5]: no binding
binding result [6]: no binding
binding result [7]: no binding
binding result [8]: no binding
EC50 [9]: 1.2 nM
